Experimental data as given in US20180094075A1 (Pfizer, published 2018).

Experiments:
[1] = biological target: human PTK7 expressed on cells (cancer cell lines with endogenous PTK7; HEK293T-PTK7 over-expressing cells) (human) (UniProt Q13308); assay: flow cytometry, KG1 cells, 10 µg/ml Ab
[2] = biological target: human PTK7 expressed on cells (cancer cell lines with endogenous PTK7; HEK293T-PTK7 over-expressing cells) (human) (UniProt Q13308); assay: flow cytometry, TF1 cells, 10 µg/ml Ab
[3] = biological target: human PTK7 expressed on cells (cancer cell lines with endogenous PTK7; HEK293T-PTK7 over-expressing cells) (human) (UniProt Q13308); assay: flow cytometry, H446 cells, 10 µg/ml Ab
[4] = biological target: human PTK7 expressed on cells (cancer cell lines with endogenous PTK7; HEK293T-PTK7 over-expressing cells) (human) (UniProt Q13308); assay: flow cytometry, H522 cells, 10 µg/ml Ab
[5] = biological target: human PTK7 expressed on cells (cancer cell lines with endogenous PTK7; HEK293T-PTK7 over-expressing cells) (human) (UniProt Q13308); assay: flow cytometry, H526 cells, 10 µg/ml Ab
[6] = biological target: human PTK7 expressed on cells (cancer cell lines with endogenous PTK7; HEK293T-PTK7 over-expressing cells) (human) (UniProt Q13308); assay: flow cytometry, H596 cells, 10 µg/ml Ab
[7] = biological target: human PTK7 expressed on cells (cancer cell lines with endogenous PTK7; HEK293T-PTK7 over-expressing cells) (human) (UniProt Q13308); assay: flow cytometry, H661 cells, 10 µg/ml Ab
[8] = biological target: human PTK7 expressed on cells (cancer cell lines with endogenous PTK7; HEK293T-PTK7 over-expressing cells) (human) (UniProt Q13308); assay: flow cytometry, HL60 cells, 10 µg/ml Ab
[9] = biological target: human PTK7 expressed on cells (cancer cell lines with endogenous PTK7; HEK293T-PTK7 over-expressing cells) (human) (UniProt Q13308); assay: flow cytometry, K562 cells, 10 µg/ml Ab
[10] = biological target: human PTK7 expressed on cells (cancer cell lines with endogenous PTK7; HEK293T-PTK7 over-expressing cells) (human) (UniProt Q13308); assay: flow cytometry, H1975 cells, 10 µg/ml Ab
[11] = biological target: human PTK7 expressed on cells (cancer cell lines with endogenous PTK7; HEK293T-PTK7 over-expressing cells) (human) (UniProt Q13308); assay: flow cytometry, THP-1 cells, 10 µg/ml Ab
[12] = biological target: human PTK7 expressed on cells (cancer cell lines with endogenous PTK7; HEK293T-PTK7 over-expressing cells) (human) (UniProt Q13308); assay: flow cytometry, BT-549 cells, 10 µg/ml Ab
[13] = biological target: human PTK7 expressed on cells (cancer cell lines with endogenous PTK7; HEK293T-PTK7 over-expressing cells) (human) (UniProt Q13308); assay: flow cytometry, DU4475 cells, 10 µg/ml Ab
[14] = biological target: human PTK7 expressed on cells (cancer cell lines with endogenous PTK7; HEK293T-PTK7 over-expressing cells) (human) (UniProt Q13308); assay: flow cytometry, HCC827 cells, 10 µg/ml Ab
[15] = biological target: human PTK7 expressed on cells (cancer cell lines with endogenous PTK7; HEK293T-PTK7 over-expressing cells) (human) (UniProt Q13308); assay: flow cytometry, HCT116 cells, 10 µg/ml Ab
[16] = biological target: human PTK7 expressed on cells (cancer cell lines with endogenous PTK7; HEK293T-PTK7 over-expressing cells) (human) (UniProt Q13308); assay: flow cytometry, HCC1937 cells, 10 µg/ml Ab
[17] = biological target: human PTK7 expressed on cells (cancer cell lines with endogenous PTK7; HEK293T-PTK7 over-expressing cells) (human) (UniProt Q13308); assay: flow cytometry, HEL92.1 cells, 10 µg/ml Ab
[18] = biological target: human PTK7 expressed on cells (cancer cell lines with endogenous PTK7; HEK293T-PTK7 over-expressing cells) (human) (UniProt Q13308); assay: flow cytometry, HL60 MX2 cells, 10 µg/ml Ab
[19] = biological target: human PTK7 expressed on cells (cancer cell lines with endogenous PTK7; HEK293T-PTK7 over-expressing cells) (human) (UniProt Q13308); assay: flow cytometry, MDAMB361-DYT2 cells, 10 µg/ml Ab
[20] = biological target: human PTK7 expressed on cells (cancer cell lines with endogenous PTK7; HEK293T-PTK7 over-expressing cells) (human) (UniProt Q13308); assay: flow cytometry, ASPC1 cells (negligible PTK7 expression by immunoblot), 10 µg/ml Ab

Sequence of human PTK7 expressed on cells (cancer cell lines with endogenous PTK7; HEK293T-PTK7 over-expressing cells) (human) (Q13308 31-1070 L93P limits assumed): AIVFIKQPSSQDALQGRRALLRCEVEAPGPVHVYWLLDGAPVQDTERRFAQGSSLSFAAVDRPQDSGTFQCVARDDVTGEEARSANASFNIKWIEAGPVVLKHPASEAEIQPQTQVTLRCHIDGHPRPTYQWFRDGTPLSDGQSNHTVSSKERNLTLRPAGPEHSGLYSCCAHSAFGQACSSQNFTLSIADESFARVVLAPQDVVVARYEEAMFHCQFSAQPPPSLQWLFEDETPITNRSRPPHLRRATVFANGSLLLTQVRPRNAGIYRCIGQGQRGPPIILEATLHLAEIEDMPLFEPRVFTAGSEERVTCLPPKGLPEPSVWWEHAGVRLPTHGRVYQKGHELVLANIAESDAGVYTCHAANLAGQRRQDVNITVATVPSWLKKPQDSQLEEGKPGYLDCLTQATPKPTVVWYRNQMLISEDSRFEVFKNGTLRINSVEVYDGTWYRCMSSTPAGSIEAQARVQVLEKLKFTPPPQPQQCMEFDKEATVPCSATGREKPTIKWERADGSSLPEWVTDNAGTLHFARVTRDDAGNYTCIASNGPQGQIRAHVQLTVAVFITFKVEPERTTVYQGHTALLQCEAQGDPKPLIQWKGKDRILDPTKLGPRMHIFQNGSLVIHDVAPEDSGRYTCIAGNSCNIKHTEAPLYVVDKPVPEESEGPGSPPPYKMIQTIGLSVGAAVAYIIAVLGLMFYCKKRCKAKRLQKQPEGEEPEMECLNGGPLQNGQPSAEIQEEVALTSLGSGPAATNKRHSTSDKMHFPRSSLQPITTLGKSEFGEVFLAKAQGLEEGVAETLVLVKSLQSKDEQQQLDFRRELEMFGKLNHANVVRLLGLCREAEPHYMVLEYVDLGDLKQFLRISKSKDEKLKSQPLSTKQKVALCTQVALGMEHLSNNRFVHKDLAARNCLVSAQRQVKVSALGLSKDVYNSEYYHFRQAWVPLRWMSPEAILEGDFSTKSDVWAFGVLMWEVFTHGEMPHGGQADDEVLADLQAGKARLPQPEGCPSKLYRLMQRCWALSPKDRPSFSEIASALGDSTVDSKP

With “Negative Control Ab (Table 8) (antibody)” the Mean Fluorescent Intensity [1] was 5.2, the Mean Fluorescent Intensity [2] was 5.9 and the Mean Fluorescent Intensity [3] was 7.1. For the same substance, the Mean Fluorescent Intensity [4] was 3.8, the Mean Fluorescent Intensity [5] was 12.2 and the Mean Fluorescent Intensity [6] was 21.4. The Mean Fluorescent Intensity [7] was 3.8, the Mean Fluorescent Intensity [8] was 10.9 and the Mean Fluorescent Intensity [9] was 54.7. For the same substance, the Mean Fluorescent Intensity [10] was 4.8, the Mean Fluorescent Intensity [11] was 4 and the Mean Fluorescent Intensity [12] was 3.6. It also gave a Mean Fluorescent Intensity [13] of 3.8, a Mean Fluorescent Intensity [14] of 5.8 and a Mean Fluorescent Intensity [15] of 17.8. For the same substance, the Mean Fluorescent Intensity [16] was 7.8, the Mean Fluorescent Intensity [17] was 7.7 and the Mean Fluorescent Intensity [18] was 25.2. It also gave a Mean Fluorescent Intensity [19] of 8.7 and a Mean Fluorescent Intensity [20] of 2.6.
